Results as given in the supplement of paper PMC9170038.

Test system: K4 kissing-loop RNA reporter
Test: apparent KD of K4 kissing-loop reporter; higher = weaker reporter binding
Details: Eterna round: R107
Method: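 RNA-MaP round R107: designed RNA switches with theophylline, tryptophan, arginine or FMN aptamers are transcribed on-chip within common flanks. They are titrated with a labelled K4 kissing-loop RNA reporter in RNA-MaP buffer (100 mM Tris pH 7.5, 80 mM KCl, 4 mM MgCl2), without ligand or with the indicated ligand. Median apparent KD per design.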

[1] = input ligand: theophylline 20 uM
[2] = input ligand: tryptophan 2.4 mM
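Also: bound reporter read as fluorescence of individual clusters on recovered sequencing chips by microscopy, with normalized cluster intensities fitted with a binding model.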

Sequence | apparent KD of K4 kissing-loop reporter (input ligand: FMN 200 uM) [nM] | apparent KD of K4 kissing-loop reporter (input ligand: arginine 13.2 mM) [nM] | apparent KD of K4 kissing-loop reporter (input ligand: none) [nM] | apparent KD of K4 kissing-loop reporter [1] [nM] | apparent KD of K4 kissing-loop reporter [2] [nM]
AAAACCAAAAGCGAUACCAGCGCGGAGUGAUGUUCCGAGGAUCGGAGUGAUGUUCCGAAGCGCCCUUGGCAGCGCAAAAGCGCAA [Exclusion Theophylline B GF 7] | 207 | 139 | 171 | 196 | 164
AAAAGAAGAAGUGAUACCAGACAAGCAGUGAUGUUGCGCCAAAGUGAGUGAUGUUCACCAGUCCCUUGGCAGCACAUGCCAAAAG [Same State Theophylline B GF 5] | 520 | 927 | 668 | 839 | 933
AAAAUAAACCAGUGAUGUUGGUGUCUAGAUACCAGCGAUAAUAAUCGCCCUUGGCAGCUACGGACGUACAAAAUAAGUACGUCCU [MatMod 10 - Jieux - Same State - Theophylline A] | 543 | 375 | 454 | 485 | 460
AAAAUAAACCAGUGAUGUUGGUGUGUAGAUACCAGCGACGAAAGUCGCCCUUGGCAGCUGUGGACGUACAAAAUAAGUACGUCCU [MatMod 23 - Jieux - Same State - Theophylline A] | 315 | 310 | 350 | 325 | 280
AAAAUAAAGGAGUGAUGUUCCAUAUGUGAUACCAGCCACGAAAGUGGCCCUUGGCAGCACUGCCAAGUGGACGAAAACGUCCACA [#OpenEnded 5 #StaticStem #K4Early] | 125 | 162 | 141 | 160 | 113
AAAAUAAAUAGCAGUCACGGAGUGAUGUUCCGAGGACCGGUACGGCCGCCACUCGACCAGACAAAGUCUGGAUGGCGAGACUGCA [#SwitchBubble 19 #K4Early] | 200 | 290 | 342 | 392 | 340
AAAAUAAAUAGCAGUCACGGAGUGAUGUUCCGAGGACCGGUACGGCCGCCACUCGACCAUCAUAAGAUGGAAUGGCGAGACUGCA [#SwitchBubble 21 #K4Early] | 134 | 135 | 137 | 138 | 354
AAAAUAAUCCAGUGAUGUUGGUAUCCAGAUACCAGCCACGAAAGUGGCCCUUGGCAGCUGUGGACGUACAAAAUAAGUACGUCCU [#OpenEnded 8 #StaticStem #K4Early] | 534 | 293 | 729 | 790 | 651
AAACAACGUGACGAUACCAGCUUACUCGGCAAGCCAGUGAUGUUGGUGAAAAGGAGUCAAAGCCCUUGGCAGCGUCGAAGGUUUG [Leteon] | 310 | 268 | 334 | 138 | 268
AAACAGCACUGGGAGUGAUGUUCUCAGUGACGAGGACCGGUACGGCCGCCACUCGCGAGAGAACUAGUCUAGACUUGACUGCAUA [Excl Tryptophan A V15] | 181 | 138 | 145 | 149 | 205
AAACAUAAGUCUGAUACCAGCCUGGGAGAAGUGAUGUUUCUCGGUGCAUAACGCCUAUAAGGCCCUUGGCAGCAGCAUGCGCUUC [theeternabot_sameState_KL_Theo_B_10] | 547 | 485 | 569 | 471 | 516
AAACAUCACUGGGAGUGAUGUUCUCAGUGACGAGGACCGGUACGGCCGCCACUCGCGAGAGAUAUAAUUAAGUAAUGACAUCAUU [Excl Tryptophan A V6] | 260 | 267 | 274 | 341 | 327
